Measurements reported in patent publication US20180320179A1, “LANOSTEROL 14-ALPHA DEMETHYLASE (CYP51) NUCLEIC ACID MOLECULES THAT CONTROL PATHOGENS” (Dow AgroSciences LLC, priority 2017, published 2018).

System: Zymoseptoria tritici (SEPTTR-184)
Assay: Cyp51 dsRNA tile (fragment) foliar application bioassay (Example 6)
Type: in vivo
Conditions: for ED50 (ppm) SEPTTR-184 1DP / ED80 (ppm) SEPTTR-184 1DP / Disease Control (%) SEPTTR-184 1DP: 1 day protectant; for ED50 (ppm) SEPTTR-184 1DP / ED80 (ppm) SEPTTR-184 1DP / ED50 (ppm) SEPTTR-184 3DC / ED80 (ppm) SEPTTR-184 3DC: calculated from disease control; for Disease Control (%) SEPTTR-184 1DP / Disease Control (%) SEPTTR-184 3DC: average of 2 trials; for ED50 (ppm) SEPTTR-184 3DC / ED80 (ppm) SEPTTR-184 3DC / Disease Control (%) SEPTTR-184 3DC: 3 days curative
Method: The 200 ppm concentration for each treatment was prepared by adding the calculated volume of the corresponding dsRNA solution in TE buffer. […] A non-target dsRNA control (YFP), a TE/phosphate buffer control, disease pressure control, and clean plant control were included.
These plants were inoculated with an aqueous spore suspension of Zymoseptoria tritici either prior to or after fungicidal treatments. After inoculation the plants were kept in 100% relative humidity to allow spores to germinate and infect the leaves. The plants were then transferred to a greenhouse set at 20° C. until disease developed.

| Molecule | ED50 (ppm) SEPTTR-184 1DP [ppm] | ED80 (ppm) SEPTTR-184 1DP [ppm] | Disease Control (%) SEPTTR-184 1DP (rate 3.125 ppm) [%] | Disease Control (%) SEPTTR-184 1DP (rate 12.5 ppm) [%] | Disease Control (%) SEPTTR-184 1DP (rate 50 ppm) [%] | Disease Control (%) SEPTTR-184 1DP (rate 200 ppm) [%] | ED50 (ppm) SEPTTR-184 3DC [ppm] | ED80 (ppm) SEPTTR-184 3DC [ppm] | Disease Control (%) SEPTTR-184 3DC (rate 3.125 ppm) [%] | Disease Control (%) SEPTTR-184 3DC (rate 12.5 ppm) [%] | Disease Control (%) SEPTTR-184 3DC (rate 50 ppm) [%] | Disease Control (%) SEPTTR-184 3DC (rate 200 ppm) [%] |
| --- | --- | --- | --- | --- | --- | --- | --- | --- | --- | --- | --- | --- |
| MgCyp51-T3: dsRNA tile of Zymoseptoria tritici Cyp51, 230 bp, location 450-679 (nucleic acid, listed as Zymoseptoria tritici) CGTCAAGTACGGCCTCACAACCTCTGCCCTCCAGTCCTACGTGACCTTGATCGCCGCCGAGACCCGCCAGTTCTTCGACCGCAACAACCCTCATAAGAAGTTCGCATCGACCAGCGGCACGATCGATCTCCCACCAGCCCTCGCCGAACTTACGATCTATACTGCCAGCCGATCATTGCAAGGAAAGGAAGTCCGCGAGGGCTTCGACTCGTCTTTCGCGGACCTCTACC | <3.125 | >200 | 64 | 72 | 69 | 74 | <3.125 | >200 | 73 | 73 | 72 | 76 |
| MgCyp51-T7: dsRNA tile of Zymoseptoria tritici Cyp51, 111 bp, location 1490-1600 (nucleic acid, listed as Zymoseptoria tritici, long dsRNA tile, purified, chemistry not given here) CGACGATGGTTCGCGATTTCAAGTTTTACAATGTGGATGGCAGCGACAACGTGGTGGGTACGGATTACAGCAGTTTGTTCAGCCGGCCGCTGTCGCCGGCAGTAGTAAAGT | 3.125 | >200 | 50 | 64 | 66 | 70 | 5.331 | >200 | 46 | 63 | 66 | 72 |
| MgCyp51-T10: dsRNA tile of Zymoseptoria tritici Cyp51, 172 bp, location 345-516 (nucleic acid, listed as Zymoseptoria tritici) GGACGTCAACGCGGAGGAGATATACAGCCCGCTGACCACTCCTGTCTTTGGCAAGGATGTGGTTTATGATTGTCCCAATTCGAAGCTCATGGAGCAGAAGAAGTTCGTCAAGTACGGCCTCACAACCTCTGCCCTCCAGTCCTACGTGACCTTGATCGCCGCCGAGACCCGC | <3.125 | >200 | 58 | 64 | 73 | 75 | 32.692 | >200 | 31 | 43 | 56 | 58 |
| MgCyp51-T12: dsRNA tile of Zymoseptoria tritici Cyp51, 138 bp, location 1377-1514 (nucleic acid, listed as Zymoseptoria tritici) TGGCTACGGCCTGGTAAGCAAGGGCGCGGCGTCGCCATACTTACCCTTTGGTGCGGGACGACACAGATGTATCGGCGAGCAATTCGCGTACGTGCAATTGCAGACCATTACAGCGACGATGGTTCGCGATTTCAAGTT | <3.125 | >200 | 59 | 64 | 63 | 64 | 24.219 | >200 | 36 | 45 | 61 | 71 |
| MgCyp51-T13: dsRNA tile of Zymoseptoria tritici Cyp51, 119 bp, location 1517-1635 (nucleic acid, listed as Zymoseptoria tritici, long dsRNA tile, purified, chemistry not given here) ACAATGTGGATGGCAGCGACAACGTGGTGGGTACGGATTACAGCAGTTTGTTCAGCCGGCCGCTGTCGCCGGCAGTAGTAAAGTGGGAGAGGAGGGAGGAGAAGGAGGAGAAGAACTGA | <3.125 | >200 | 58 | 59 | 70 | 74 | 4.167 | >200 | 45 | 54 | 64 | 59 |
